Source: patent US20150274808A1 (Biogen, published 2015)

Molecular target: T1, human antigen that binds to mAb1 (human LINGO-1) (human, UniProt Q96FE5 42-538, limits assumed)
T1 sequence (looked up): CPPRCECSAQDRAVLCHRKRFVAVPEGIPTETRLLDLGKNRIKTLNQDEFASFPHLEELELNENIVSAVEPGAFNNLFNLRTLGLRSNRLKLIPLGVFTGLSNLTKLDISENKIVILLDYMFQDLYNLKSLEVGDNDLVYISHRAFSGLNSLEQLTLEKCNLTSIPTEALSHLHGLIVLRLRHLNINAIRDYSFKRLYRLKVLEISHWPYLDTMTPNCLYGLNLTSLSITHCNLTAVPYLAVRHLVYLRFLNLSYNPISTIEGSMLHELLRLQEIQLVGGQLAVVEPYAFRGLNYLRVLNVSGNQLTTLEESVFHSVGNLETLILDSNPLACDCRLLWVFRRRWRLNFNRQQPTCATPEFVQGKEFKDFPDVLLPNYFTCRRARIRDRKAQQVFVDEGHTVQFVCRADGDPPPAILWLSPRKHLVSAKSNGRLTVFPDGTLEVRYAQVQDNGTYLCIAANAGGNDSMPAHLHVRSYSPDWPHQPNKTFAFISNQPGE
Assay: direct binding ELISA on plate-coated human antigen; preparation with 39% trisulfide at LC5-HC5
Experimental: Costar 96-well easy wash plates were coated overnight with 5 μg/mL human antigen that binds to mAb1 (50 μL/well), in 50 mM sodium carbonate (pH 9.5) at 4° C. Plates were washed 3 times with 350 μL of PBS using a plate washer and blocked with 1% BSA, 0.1% ovalbumin, and 0.1% non-fat dry milk in Hank's balanced salt buffer containing 25 mM HEPES (pH 7.0) for 1 hour at room temperature. Plates were then washed again, and incubated for 1 h with a 3-fold dilution series set up for each test compound (50 μL/well, 8 dilutions) starting at 10 μg/mL and all in 0.1% BSA, 0.1% ovalbumin, and 0.1% non-fat dry milk in Hank's balanced salt buffer containing 25 mM HEPES (pH 7.0), and again washed. Bound mAb1 was detected using AP-anti-human Fab. […] Plates were read at 405 nm on a Molecular Devices plate reader. EC₅₀ values for binding were calculated from the titration curve using prism software. The function of mAb2 was assessed as for mAb1 except that 96 well microplates were coated overnight at 4° C. with 1 μg/mL (in 15 mM Na₂CO₃, 35 mM NaHCO₃, pH 9.6) of a human antigen that binds to mAb2. […] Binding was determined using a horseradish peroxidase-conjugated goat anti-human polyclonal antibody (Jackson ImmunoResearch, West Grove, Pa.) followed by measurement of horse radish peroxidase activity using the substrate tetramethylbenzidine.

B1: anti-LINGO-1 antibody Li81 (antibody, V domains shown)
VH: EVQLLESGGGLVQPGGSLRLSCAASGFTFSAYEMKWVRQAPGKGLEWVSVIGPSGGFTFYADSVKGRFTISRDNSKNTLYLQMNSLRAEDTAVYYCATEGDNDAFDIWGQGTTVTVSS
VL: DIQMTQSPATLSLSPGERATLSCRASQSVSSYLAWYQQKPGQAPRLLIYDASNRATGIPARFSGSGSGTDFTLTISSLEPEDFAVYYCQQRSNWPMYTFGQGTKLEIK
notes: Tested as an aglycosyl human IgG1 made in CHO cells; They differ only in the share of trisulfide at the light-heavy (LC5-HC5) interchain bond; also called mAb1; Mab1
B1 showed an EC50 of 0.02 nM.
